From the supplement of paper PMC12764529
± gives the half width of the 95% confidence interval.

Experiment: folding stability dG unfold from chymotrypsin proteolysis; higher = more stable
How it was run: (§1)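 Unfolding free energy was derived, per protease or combined, by relating Bayesian-fitted K50 values from sequencing counts to a sequence-predicted unfolded-state K50 and a shared folded-state K50. The underlying digests exposed cysteine-free mini-proteins under 80 residues, in a PA-tagged cDNA display construct, to trypsin and chymotrypsin at 11 threefold-diluted concentrations and to a no-protease condition. A filter kept only designs with AlphaFold2 dimer inter-PAE above 15.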

Row | Sequence | folding stability dG unfold [kcal/mol]
1 | SAGGEKRYLVRVRAYYRFEEGERELDLEVEVTSPEEAKELLEKIATRLRKLYPDRIRIEVEIRPLEESAGGS [r16_475_TrMRF] | 5.1 ± 0.12
2 | SAGGSAGGSAGMVITKDPNGNYTVDLVLPDGTPLDSGTITLEEVEKILKERGIPLKEIFGSAGGSAGGSAGG [r11_521_JUSTAS] | 0.543 ± 0.048
3 | SAGEEKEAKALAEQYAAEFAPKLGMKYEVPEVKVEKDEKTGKITVTVTVKFTFPEPRTVTKKFTIVVPKSAG [r5_381_JUSTAS] | 1.61 ± 0.11
4 | SMKPITLEEALKLAEKLIEEGAKEVVIIRREDGTLLAIMEAEEASPEKVKEFLEANPNVRVLRITGSKEESA [r9_568_TrMRF] | 3.11 ± 0.045
5 | SAGGMYLVKIKVKIDSPTSEKERDLYILAEPDTDVEEIVKKIPGAKNIEIEVEIIPPSENPEIASNPLSAGG [r19_339_JUSTAS] | 0.7 ± 0.15
6 | SAGGSAGGSAMKIELTVPPGEEAELEARAKALAEAEGVEVVSVSKSPEGTYTMTVLNTVPPESAGGSAGGSA [r18_351_JUSTAS] | -0.164 ± 0.19
7 | SAGGRVRLEEVEILPPLEDPEDNPDRPLLLLRVRARVEYDTPEGPREEERELVLVVSPERLEEALEALSAGG [r13_149_TrMRF] | 1.62 ± 0.13
8 | SAGGSPWIFVIKIEWEPRDPDGKKKKYEYSIVITATPNQLDELLEQIKKAPPGYKIKEVKIEVFPFSAGGSA [r2_75_TrROS] | 4.21 ± 0.086
9 | SAGGSAGGGMGPASFYIVTVDPNNPNVTKVESLSPSVDISLYRKKPFPIKTFSASNIEKLLKELSAGGSAGG [r6_864_JUSTAS] | 0.791 ± 0.18
10 | SAGGSAGGSAGEPVEVTPLSTETVPDSDTTVTYYKVTYPGGKEAIRTVYSDGTETTTPLPSAGGSAGGSAGG [r11_637_JUSTAS] | 1.02 ± 0.1
11 | SAGGSAGGSAGMKKNEKLITELTFEGPDVYVKITIEKTFDPEGNKIYFKAKIEVFAPGELSAGGSAGGSAGG [r11_237_TrMRF] | 4.06 ± 0.075
12 | SAGGTIFIPWEEAEEFIENAFENGEDIEIEFFLDDGWWYKFTITGPDIDLRVVEVVPMPPPPEDPGKKSAGG [r13_839_TrROS] | 2.82 ± 0.042
13 | SAGGSAPSPEVPLWRFEAPGASGGVALIEGYPGGELRVVFFTDDGRPVELTFPVVVLPPAPLEELFSAGGSA [r15_478_TrMRF] | 1.24 ± 0.086
14 | SAGMTIEIEIPASTSAEEAVERVEAIVEEVRKAGKKFELTIKTSDPALAAAVRAALEAAGVPVTVEVDSAGG [r19_268_JUSTAS] | 2.48 ± 0.033
15 | SAGGMKVEKNTIYIEVEKDMSAEEVAKKIAEELKKKGLKVEIKVEKKEDGTKVIRIKVDGKEIEIYASAGGS [r16_771_TrROS_Hall] | 1.13 ± 0.18
16 | SAGGSAGGSAGGKKIIKVNLRIYDPVNPKVTVLPIEAPFDEIIKIAKEIAAPDQVVEISSAGGSAGGSAGGS [r10_397_TrMRF] | -0.506 ± 0.097
17 | SAGEPEKVTITLVDEETGVVITIEIDKETKKITITVESEEERERARELAERLAKELEEAGIKVEILPPSAGG [r19_354_TrROS_Hall] | 2.26 ± 0.18
18 | SAGMEATIEIVGHPGDKEAIAVLRPEDKTVVIYKNKDGSYTVEVFEPNPARLIERKELPLEEAIKEALSAGG [r19_188_TrMRF] | 1.45 ± 0.064
19 | SADLAKNIAKKLNPDIKDVQIKDIELQPNPDNGYPVIKVELEVKMNDGPYKKSIWFMPNGFQIKIQPVPSAG [r14_397_TrROS] | 1.77 ± 0.21
20 | SAGGSAGGSAAISIDLPPNSVLNISIPVTEPGGKPYTVKISVYSTPLPSNSYELNIKVTIVSAGGSAGGSAG [r3_347_JUSTAS] | 4.66 ± 0.093
21 | SMFTLVLPDGSVIPVIKGDSTTTVYDPRTGRTLPIPSSTVEENSIEEIVERILAELEKLGVPAQPVEILESA [r9_1211_JUSTAS] | 1.72 ± 0.032

Experiment: folding stability dG unfold (combined trypsin and chymotrypsin); higher = more stable
How it was run: as §1

Row | Sequence | folding stability dG unfold [kcal/mol]
22 | SAGGSAGGSAGIWIPIKDPKEAVDYIQEWFHKKGGYDINIEPTEVYPDGWVRVEINIEPKSAGGSAGGSAGG [r17_430_TrROS] | 1.06 ± 0.26
23 | SAGGSAGGSAEDVVLKVKIEIPSSDGTLLEIDEAIYNPKPGTLHFKIRSPDGSEFEIEIPLDSAGGSAGGSA [r18_370_TrMRF] | 1.12 ± 0.082
24 | SAGKKKKVVITIKVEKSEEEVKELVKKLAEEAKKKGKEVVIKIEVDGKTYEFTLEDIKKLPPNAKVTLLSAG [r5_626_TrROS_Hall] | 1.58 ± 0.44
25 | SDMKIRIDDIDIQPLDEDGQPITINYKIEFGGQPVYFQIEIWVKPDGPVVIKIDIYNPDNGKPFEWTFPISA [r9_241_TrROS] | 2.48 ± 0.23
26 | SMIKIKVVEKKDGKYKIKIENKKTGKTFEFEFDTKEEAEEAEKNPGKTIYLSEEALKKLKKENITKVEKVSA [r9_390_TrROS_Hall] | 1.11 ± 0.15
27 | SAGLPIPEGATVKTLESSESVEGNKTVKTDKIIVTFPDGSTKEVEVVTTYDPNGNPTTTYIVGNKKIPLSAG [r5_507_JUSTAS] | 1.32 ± 0.059
28 | SAGMKITLPKGVKSIKVEEVNGKKVIYIEVDGKIFVYDLKTGKLYIYDKKTGEKKEITIKKGDTITLKSAGG [r19_138_TrROS_Hall] | 1.55 ± 0.07
29 | SAGGEIERDPNGWIRMTYTLPGFGYKIEITFRVPDNGMMQIEDIDIEPIPPVPPPPPPKYDPNGEWKYSAGG [r13_646_TrROS] | 2.02 ± 0.17
30 | SAGGSAGGMIREIEVKVSPEFPSVEEVVEELKAKGYEVKRIEEDPETDEVIVYVVKKVPEEEHHSAGGSAGG [r6_604_JUSTAS] | 1.08 ± 0.12
31 | SAPVVVVETIPDGGVLIVPAVFEPDKLLEYVEEIVNKIKPKGAEVEAKVIKVEPFEDFVVVTFEVKVKPSAG [r14_345_TrMRF] | 1.68 ± 0.16
